Test results reported in US20230050846A1 (LIFESEARCH, published 2023).

B1: IF1-1-60 (peptide)
peptide: GSDQSENVDRGAGSIREAGGAFGKREQAEEERYFRAQSREQLAALKKHHEEEIVHHKKEI

Each binder was assayed against Human F1Fo-ATPase purified from HepG2 cells (human) (assay: cell-based or functional assay).

Row | F1-ATPase activity (NADH-coupled assay, purified F1Fo-ATPase, 1 µM peptide), inhibition as compared to control [%] | Binder
1 | 94 | B1
2 | 88 | RGAGSIREAGGAFGKREQAEEERYFRAQSREQLAALKKHHEEEIVHH [IF1-10-56]
3 | 75 | RGAGSIREAGGAFGKREQAEEERYFRAQSREQLAALKK [IF1-10-47]
